Key:
THP-1 cells = assay: THP-1 phagocytosis assay with FITC-labeled K. pneumoniae; assay type: cell-based, Human; conditions: activated THP-1 cells
Protocol: (§1) Human leukemia monocytic THP-1 cells and murine macrophage cell line RAW 264.7 were obtained from the American Type Culture Collection. THP-1 cells were grown in suspension in RPMI-1640 supplemented with 10 mM HEPES, 1 mM sodium pyruvate, 0.1% β-mercaptoethanol, 100 U/ml penicillin, 100 µg/ml streptomycin, and 10% fetal bovine serum (FBS). RAW 264.7 cells were grown as an adhered layer in Dulbecco's modified Eagle's medium with 4 mM L-glutamine adjusted to contain 1.5 g/l sodium bicarbonate and 4.5 g/l glucose, 100 U/ml penicillin, […] streptomycin, and 10% FBS under a humidified 5% CO2 atmosphere at 37° C. For differentiation, THP-1 cells were plated in medium containing 10 nM PMA and allowed to adhere for 18 h.
FITC-labeled K. pneumoniae (1×10^5 CFU/well) were pre-incubated with rTMD1 at 37° C. for 30 minutes before adding to differentiated THP-1 cells. After incubation for 2 hours the THP-1 cells were washed twice with ice-cold PBS prior to fluorescence microscopy, or were further trypsinized, resuspended in PBS, and analyzed in a fluorescence-activated cell sorter (FACS; Becton Dickinson, San Jose, Calif.) to measure THP-1 cell intracellular fluorescence. Green fluorescence data from 10,000 events (cells) per condition collected at 530 nm on a log scale were analyzed with CellQuest™ software (Becton Dickinson).

[1] = LPS binding assay (coated wells); parameters: species or system E. coli; conditions: FIG. 4B
Protocol: (§2) K. pneumoniae (3×10^5 CFU/well), E. coli O111:B4 smooth-type LPS (5 μg/well), or bovine serum albumin (BSA, 5 μg/well) in 100 μL of bicarbonate buffer (pH 9.6) were coated onto wells of high-binding microtiter plate (Corning Costar, Cambridge, Mass.). Nonspecific binding was blocked with binding buffer (20 mM Tris-HCl, pH 7.4, 0.15 M NaCl, 5 mM CaCl2) containing 50 mg/mL BSA. Various concentrations of rTMD proteins without or with CD14 (10 μg/mL; R&D Systems) in binding buffer containing 1 mg/mL BSA were added to wells and incubated for 2 hours. In some experiments, 0.2 M mannose, 5 mM EDTA, or Le^y were included in the binding buffer to compete with LPS and rTMD1 binding. Antibody against the c-Myc epitope of the rTMD proteins was added to wells and incubated for 2 hours, and peroxidase-labeled secondary antibody followed. Binding of rTMD proteins was detected by measuring absorbance at 450 nm.

[2] = biological target: T1, binding of LPS binding protein to LPS (Homo sapiens, UniProt P18428); assay: Binding of LPS binding protein to LPS; conditions: data not shown
T1 sequence (P18428 26-481): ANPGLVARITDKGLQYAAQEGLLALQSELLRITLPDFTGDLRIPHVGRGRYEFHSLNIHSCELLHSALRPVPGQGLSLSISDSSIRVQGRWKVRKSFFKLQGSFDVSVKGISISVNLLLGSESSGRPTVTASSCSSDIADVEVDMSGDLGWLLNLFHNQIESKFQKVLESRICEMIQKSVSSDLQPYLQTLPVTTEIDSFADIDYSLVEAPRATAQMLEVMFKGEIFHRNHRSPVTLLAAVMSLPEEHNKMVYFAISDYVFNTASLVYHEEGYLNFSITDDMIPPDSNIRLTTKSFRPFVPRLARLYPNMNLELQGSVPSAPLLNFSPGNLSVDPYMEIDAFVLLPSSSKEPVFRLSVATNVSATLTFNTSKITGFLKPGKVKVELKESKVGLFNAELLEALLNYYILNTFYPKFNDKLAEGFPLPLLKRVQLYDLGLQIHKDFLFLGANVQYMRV

RAW 264.7 cells [3] = assay: LPS-induced TNF-α production in RAW 264.7 cells (ELISA); assay type: cell-based, murine
Protocol: as §1
(§3) TNF-α in conditioned medium or mouse serum was measured by an enzyme-linked immunosorbent assay (ELISA) (R&D Systems, Minneapolis, Minn.). Accumulation of nitrite in the medium or mouse serum was determined by a colorimetric assay using Griess reagent (Sigma-Aldrich). Blood urea nitrogen (BUN) and creatinine were measured with a Roche D&P modular (Roche Diagnostic Systems, Branchburg, N.J.). Assays were performed according to the manufacturer's protocol.

RAW 264.7 cells [4] = assay: LPS-induced NO production in RAW 264.7 cells (Griess reagent); assay type: cell-based, murine; conditions: pre-incubated with LPS, 6 hours incubation (FIG. 1B)
Protocol: as §1, §3

RAW 264.7 cells [5] = assay: Western blotting of LPS-induced signaling pathways in RAW 264.7 cells; assay type: cell-based, murine
Protocol: rTMD1 (0-50 μg/mL, equals 0-2.18 nmole/mL) pre-incubated without or with Escherichia coli (E. coli) LPS (LPS O111:B4, Sigma-Aldrich) in the absence or presence of Lewis Y (Le^y; Dextra Laboratories, Reading, UK) for 30 minutes was used to stimulate THP-1 or RAW 264.7 cells. Incubation period included 15 minutes for pIκB and IκB (B-9 and C-21, Santa Cruz Biotechnology, Santa Cruz, Calif., unless otherwise noted), 20 minutes for p38 (C-20) and pp38 (D-8), 30 minutes for ERK1/2 (K-23), pERK1/2 (E-4), lamin B2 (E-3, Zymed Laboratories, San Francisco, Calif.), NF-κB p50 (C-19) and NF-κB p65 nuclear translocation (C-20), and 24 hours for iNOS expression using a specific antibody (N-20).

binding of CD14 to LPS = biological target: T2, binding of CD14 to LPS (Homo sapiens, UniProt P08571); assay: Blockage of the binding of CD14 to LPS; conditions: FIG. 4D
T2 construct: purchased R&D Systems
T2 sequence (P08571 20-352 limits assumed): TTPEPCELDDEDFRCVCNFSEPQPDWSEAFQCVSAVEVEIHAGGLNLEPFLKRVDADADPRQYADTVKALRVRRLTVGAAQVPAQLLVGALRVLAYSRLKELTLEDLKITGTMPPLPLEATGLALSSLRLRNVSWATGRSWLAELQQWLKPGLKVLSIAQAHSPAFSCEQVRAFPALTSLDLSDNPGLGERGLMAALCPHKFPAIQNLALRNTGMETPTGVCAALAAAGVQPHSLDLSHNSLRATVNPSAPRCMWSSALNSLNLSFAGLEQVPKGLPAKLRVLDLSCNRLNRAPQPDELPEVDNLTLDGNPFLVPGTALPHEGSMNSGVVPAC
Protocol: as §2

B1: rTMD1: recombinant human thrombomodulin N-terminal lectin-like domain (residues Ala1-Ala155) with 6×His tag and c-Myc epitope, Pichia pastoris expressed (protein)
chain: EFAPAEPQPGGSQCVEHDCFALYPGPATFLNASQICDGLRGHLMTVRSSVAADVISLLLNGDGGVGRRRLWIGLQLPPGCGDPKRLGPLRGFQWVTGDNNTSYSRWARLDLNGAPLCGPLCVAVSAAEATVPSEPIWEEQQCEVKADGFLCEFHFPAYLEDDDDKIEQKLISEEDLNSAVDHHHHHH
modifications: left off: small tags and cut ends
In the case of B1, the “bacterial phagocytosis by THP-1 cells” value (THP-1 cells) is reported as “markedly increased”, the “binding to LPS” value [1] is reported as “specifically bound” and the Kd ([1]; estimated from the 50% saturation, read-out: apparent Kd of the binding of LPS with rTMD1) is reported as ~1600 nM. For the same molecule, the “binding of LPS binding protein to LPS” value [2] was “not inhibited”, the “TNF-α production in RAW 264.7 cells stimulated with LPS” value (RAW 264.7 cells [3]; pre-incubated with LPS, 6 hours incubation (FIG. 1A)) was “dose-dependently inhibited” and the “LPS-induced TNF-α production” value (RAW 264.7 cells [3]; various concentrations of LPS and rTMD1 (FIG. 1C)) was “dose-dependently inhibited”. The “NO production in RAW 264.7 cells” value (RAW 264.7 cells [4]) was “effectively inhibit”, the “LPS-induced nuclear translocation of NF-κB” value (RAW 264.7 cells [5]; FIG. 1E) was “inhibited in a dose-dependent fashion” and the “LPS-induced phosphorylation of ERK1/2 and p38” value (RAW 264.7 cells [5]; FIG. 1F) was “inhibited”. The “LPS-induced phosphorylation and degradation of IκBα” value (RAW 264.7 cells [5]; LPS 100 ng/mL, rTMD1 50 μg/mL (2.18 nmole/mL)) was “totally reversed”, the “iNOS induction by LPS” value (RAW 264.7 cells [5]; RAW 264.7 cells, FIG. 1G) was “inhibited” and the “binding of CD14 to LPS” value (binding of CD14 to LPS) was “inhibited”.

— US20120165244A1, “METHODS FOR BINDING LEWIS Y ANTIGEN” (priority 2008, published 2012)
